According to US20030099984A1 (TEXAS A AND M UNIVERSITY SYSTEM, published 2003):

Legend:
[1] = molecular target: the molecule itself; assay: yeast two-hybrid, beta-galactosidase filter assay; bait and prey RNase H-like protein
[2] = molecular target: T1, untagged hen egg white lysozyme (hen, UniProt P00698 19-147); assay: farwestern blot (FIG. 13), control lane
T1 construct: Negative control; also called HEWL

untagged RNase A = molecular target: T2, untagged RNase A (UniProt P61823 27-150); assay: farwestern blot (FIG. 13), control lane
T2 construct: Negative control
T2 sequence: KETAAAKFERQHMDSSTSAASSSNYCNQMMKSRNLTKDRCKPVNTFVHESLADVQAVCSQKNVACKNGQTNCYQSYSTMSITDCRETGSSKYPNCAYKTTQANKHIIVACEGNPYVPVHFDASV

[3] = molecular target: T3, untagged bovine serum albumen (bovine, UniProt P02769 25-607); assay: Ni column pull down under physiological conditions, SDS PAGE autoradiogram
T3 construct: Negative control; also called BSA
T3 sequence (P02769 25-607 limits assumed): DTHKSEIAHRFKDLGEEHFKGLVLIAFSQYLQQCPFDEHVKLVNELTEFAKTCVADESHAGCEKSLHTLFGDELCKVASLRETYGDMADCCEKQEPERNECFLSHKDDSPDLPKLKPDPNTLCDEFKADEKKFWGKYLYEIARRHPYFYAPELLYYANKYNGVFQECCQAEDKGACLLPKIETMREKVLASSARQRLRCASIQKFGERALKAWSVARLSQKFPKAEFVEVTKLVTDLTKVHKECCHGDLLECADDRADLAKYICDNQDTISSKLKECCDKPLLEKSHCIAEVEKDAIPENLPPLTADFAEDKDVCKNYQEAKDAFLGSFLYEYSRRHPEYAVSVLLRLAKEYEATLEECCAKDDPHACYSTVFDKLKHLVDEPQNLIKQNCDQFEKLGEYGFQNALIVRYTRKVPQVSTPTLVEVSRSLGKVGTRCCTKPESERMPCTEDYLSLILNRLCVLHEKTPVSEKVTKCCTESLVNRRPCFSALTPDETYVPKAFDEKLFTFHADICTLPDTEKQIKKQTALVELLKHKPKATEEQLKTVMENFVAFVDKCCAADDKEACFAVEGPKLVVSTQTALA

T1 sequence (P00698 19-147): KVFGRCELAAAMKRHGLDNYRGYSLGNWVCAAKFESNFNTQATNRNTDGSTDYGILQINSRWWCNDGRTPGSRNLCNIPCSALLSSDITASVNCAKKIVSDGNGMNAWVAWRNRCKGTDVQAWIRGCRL

Binder | binding result [1] | binding result [2] | binding result (untagged RNase A) | binding result [3]
RNase H-like protein (sugarcane), yeast two-hybrid fusion (other, Prey clone from the cDNA library of silenced sugarcane plant #16; same id for bait and prey fusions) GHYGRGEHCMKNMAASYSQDAQLDLVLPDAPVDASASRSEHSSQLASSNWRSVIQNSPPDLLCGCGRPAIRRTAETAKNNGRIFRTCPACKIWIWQDLLDSYVNALISYCRDASIDSLQSELESSRLLISEKQAQISRLEKQLETLQPLISKYTEQSRSIAQASIPSSLFFLEACSLRHQRRRVNENQGGANFKRSYWSD | binds |  |  | 
35S labeled RNase H-like protein transcription and translation (TNT) product (other, labeled with 35S Cysteine, Made in rabbit reticulocyte lysate; used as probe in farwestern blots and as the labelled partner in the pull down) GHYGRGEHCMKNMAASYSQDAQLDLVLPDAPVDASASRSEHSSQLASSNWRSVIQNSPPDLLCGCGRPAIRRTAETAKNNGRIFRTCPACKIWIWQDLLDSYVNALISYCRDASIDSLQSELESSRLLISEKQAQISRLEKQLETLQPLISKYTEQSRSIAQASIPSSLFFLEACSLRHQRRRVNENQGGANFKRSYWSD |  | no binding | no binding | no binding
